Laboratory results taken from patent US20250122301A1 (IBIO, published 2025).
Where a chain is given by its changes, count along the chain named.

B1: D34 Fab (Fab, V domains shown)
VH: QVQLQQSGAELVRPGVSVKISCKGSGYTFTDYAMHWVKQSHAKSLEWIGVISTYSGDVSYNQKFKGKATMTVDKSSSTAYMELARLTSEDSAIYYCARGVTFDSWGQGTTVTVSS
VL: DIQMTQSPASLSASVGETVTITCRASENSYSYLEWYQQKQGKSPQLLVYNAKTLAEGVPSRFSGSGSGTQFSLKINSLQPEDFGTYYCQHHYGTPYTFGGGTKLEIK
notes: Fab; also called Fab clone D34
B2: D11 Fab (Fab, V domains shown)
VH: B1 VH with V2I, S7P, V18L, K38R, V58A, S59I, M81L, E89D, S104Y
VL: DIQMTQTTSSLSASLGDRVTITCRASQDISNYLEWYQQKQGKSPQLLVYNAKTLAEGVPSRFSGSGSGTQFSLKINSLQPEDFGSYYCQHHYDTPYTFGGGTKLEIK
notes: Fab; also called Fab clone D11
B3: D36 Fab (Fab, V domains shown)
VH: B1 VH with S7P, V18L, K38R, V58A, S59L, M81L, S104Y, V111L
VL: B1 VL with I2V, Q3V, I106M
notes: Fab; also called Fab clone D36
B4: D5 Fab (Fab, V domains shown)
VH: HVQLQQSGAELVRPGTSVKISCKASGYTFTNYWLGWVKQRPGHGLEWIGDIYPGGGYTNYNEKFKGKATLTADTSSSTAYMQLSSLTSEDSAVYFCARVTPASWGQGTSLTVSS
VL: DIVMTQSQKFMSTSVGDRVSVTCKASQNVGTNVAWYQQKPGQSPKALIYSASYRYSGVPDRFTGSGSGTDFTLTISNVQSEDLAEYFCQQYNSYPYTFGGGTKLEMK
notes: Fab from mouse immune phage library, expressed in E. coli; also called Fab clone D5
B5: D17 Fab (Fab, V domains shown)
VH: B4 VH with H1Q, V2I, S109T, S114A
VL: B4 VL with V3L, M4L, Y96L, M106I
notes: Fab; also called Fab clone D17
B6: D16 Fab (Fab, V domains shown)
VH: B4 VH with H1Q, L4M, S109T
VL: B4 VL with V3Q, Y96W, M106I
notes: Fab; also called Fab clone D16

Molecular target: T1, CD25 on CD25+ cells (SUDHL-1, HEK IL-2 reporter cells, primary human regulatory T cells) (human, UniProt P01589 22-272)
T1 sequence (looked up): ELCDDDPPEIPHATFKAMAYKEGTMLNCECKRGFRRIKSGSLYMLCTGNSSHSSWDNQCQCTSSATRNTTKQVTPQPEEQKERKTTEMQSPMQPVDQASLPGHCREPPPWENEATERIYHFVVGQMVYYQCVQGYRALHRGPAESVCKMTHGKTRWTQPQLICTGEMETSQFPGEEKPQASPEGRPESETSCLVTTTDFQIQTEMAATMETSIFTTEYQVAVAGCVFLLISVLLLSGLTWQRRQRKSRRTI
Assay: cell-based or functional assay

Row | Binder | pSTAT5 IC50 (1 ug/mL) [ng/ml] | pSTAT5 IC50 (2 ug/mL) [ng/ml] | pSTAT5 IC50 (5 ug/mL) [ng/ml]
1 | B1 | 2.56 ng/ml | 2.35 ng/ml | 2.27 ng/ml
2 | B2 | 0.414 ng/ml | 0.303 ng/ml | 0.509 ng/ml
3 | B3 | 2.23 ng/ml | 3.45 ng/ml | 0.378 ng/ml
4 | B4 | 0.303 ng/ml | 0.488 ng/ml | 1.65 ng/ml
5 | B5 | 0.251 ng/ml | 0.217 ng/ml | 0.283 ng/ml
6 | B6 | 0.43 ng/ml | 4.77 ng/ml | 40.3 ng/ml

Molecular target: T2, full-length CD25 (human CD25, recombinant protein used on biosensors) (human, UniProt P01589 22-213, limits assumed)
T2 construct: Printed only as Human CD25 / full-length CD25; also called CD25 antigen; alpha chain of the IL-2 receptor
T2 sequence (looked up): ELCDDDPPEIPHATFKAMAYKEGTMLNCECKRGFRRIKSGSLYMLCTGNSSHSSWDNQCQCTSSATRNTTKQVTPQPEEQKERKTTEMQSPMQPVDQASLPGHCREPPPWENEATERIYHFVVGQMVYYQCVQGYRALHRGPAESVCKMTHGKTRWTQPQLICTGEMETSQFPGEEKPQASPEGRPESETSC
Assay: Octet BLI, human CD25 on AR2G tip, Fab, pH 6.5

Row | Binder | koff
7 | B1 | 0.00296 s⁻¹
8 | B2 | 0.00522 s⁻¹
9 | B3 | 0.00172 s⁻¹
10 | B4 | 0.00412 s⁻¹
11 | B5 | 0.00536 s⁻¹
12 | B6 | 0.00591 s⁻¹

Molecular target: T2, full-length CD25 (human CD25, …)
Assay: Octet BLI, human CD25 on AR2G tip, Fab, pH 7.4

Row | Binder | koff
13 | B1 | 0.00285 s⁻¹
14 | B2 | 0.00452 s⁻¹
15 | B3 | 0.000898 s⁻¹
16 | B4 | 0.00345 s⁻¹
17 | B5 | 0.00337 s⁻¹
18 | B6 | 0.004 s⁻¹
